Consider two molecules from patent publication US20130295090A1.

As usually defined, the Kd is the free concentration of one partner at which half of the binding sites on the other are occupied at equilibrium, for simple one-to-one binding. A high value points to a looser complex.

The experiment deals with JEV strain SA14-14-2 envelope (E) protein on virions (Japanese encephalitis virus strain SA14-14-2), P0DOH7. Description: ELISA on JEV virions captured with HMAF, half-maximal binding, MAb. Conditions: remark: other sources report otherwise. A general note: An ELISA detects its analyte on a solid surface through an enzyme-linked reagent.

B1: humanized MAb B2 (antibody)
VH: EVQLLEQSGSEVKKPGASVKVSCKASGYPFTDYAMSWVRQAPGQGLEYMGWIFTNSGNPTYAPGFAGRFVFSLDISVNTAYLHIDSLKPEDTAVYYCARGIVTPAASGDYFDSWGQGTLVTVSSASTKGPSVFPLAPSSKSTSGGTAALGCLVKDYFPEPVTVSWNSGALTSGVHTFPAVLQSSGLYSLSSVVTVPSSSLGTQTYICNVDHKPSNTKVDKKVEPKSCDKTHTCPPCPAPPVEGGPSVFLFPPKPKDTLMISRTPEVTCVVVDVSHEDPEVKFNWYVDGVEVHNAKTKPREEQYNSTYRVVSVLTVLHQDWLNGKEYKCKVSNKALPAPIEKTISKAKGQPREPQVYTLPPSRDELTKNQVSLTCLVKGFYPSDIAVEWESNGQPENNYKTTPPVLDSDGSFFLYSKLTVDKSRWQQGNVFSCSVMHEALHNHYTQKSLSLSPGK
VL: ELVLTQSPSSLSASIGDRVTITCRASQHISSWLAWYQQKPGKAPKPLIYAASSLKSGVPSRFSGSGSGTDFTLTISGLQPEDFATYYCQQYENSPVTFGGGTKVEIKRTVAAPSVFIFPPSDEQLKSGTASVVCLLNNFYPREAKVQWKVDNALQSGNSQESVTEQDSKDNTYSLSSTLTLSKADYEKHKVYACEVTHQGLSSPVTKSFN
The molecule B1 came in with a Kd of 0.08 nM.

B2: humanized MAb A3 (antibody)
VH: EVQLLESGAEVKKPGSSVRISCKVSGTPYSSYVMNWVRQAPGQGLEWMGVFVPSLDRALYAQNFQGRLSITADTTTTYMELTSLKFEDTAVYYCATDFSVGWLRPLDRWGQGTLVTVSSASTKGPSVFPLAPSSKSTSGGTAALGCLVKDYFPEPVTVSWNSGALTSGVHTFPAVLQSSGLYSLSSVVTVPSSSLGTQTYICNVDHKPSNTKVDKKVEPKSCDKTHTCPPCPAPPVEGGPSVFLFPPKPKDTLMISRTPEVTCVVVDVSHEDPEVKFNWYVDGVEVHNAKTKPREEQYNSTYRVVSVLTVLHQDWLNGKEYKCKVSNKALPAPIEKTISKAKGQPREPQVYTLPPSRDELTKNQVSLTCLVKGFYPSDIAVEWESNGQPENNYKTTPPVLDSDGSFFLYSKLTVDKSRWQQGNVFSCSVMHEALHNHYTQKSLSLSPGK
VL: not shown
With B2, the Kd is 0.15 nM.
